# Data: IntAct's records for PubMed 19070620
# Molecular target: T1, rogf8_arath ROPGEF8 (UniProt Q9LV40)
# T1 sequence: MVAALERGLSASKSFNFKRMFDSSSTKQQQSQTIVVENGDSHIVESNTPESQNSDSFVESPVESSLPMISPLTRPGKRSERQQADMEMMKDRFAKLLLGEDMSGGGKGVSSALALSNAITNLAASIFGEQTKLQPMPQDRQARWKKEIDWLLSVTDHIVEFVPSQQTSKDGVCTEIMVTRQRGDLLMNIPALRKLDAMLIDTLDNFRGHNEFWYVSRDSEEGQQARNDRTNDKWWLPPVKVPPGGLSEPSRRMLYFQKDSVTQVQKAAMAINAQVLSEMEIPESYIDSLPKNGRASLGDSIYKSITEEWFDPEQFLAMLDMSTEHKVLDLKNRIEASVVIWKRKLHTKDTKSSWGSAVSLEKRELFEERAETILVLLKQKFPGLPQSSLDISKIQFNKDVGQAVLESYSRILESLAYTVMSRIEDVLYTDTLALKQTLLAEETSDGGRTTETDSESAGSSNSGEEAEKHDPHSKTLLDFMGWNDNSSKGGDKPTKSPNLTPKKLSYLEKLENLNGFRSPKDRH
substance,measurement,value
Ras-related C3 botulinum toxin substrate 1 (Homo sapiens) (from UniProt P63000) P73C,effect of a mutation on the interaction,increasing interaction
